Experimental data taken from article PMC4628882.

Columns and labels:
[1] = biological target: mouse melanocortin 1 receptor (mouse) (UniProt Q01727)
[2] = biological target: mouse melanocortin 3 receptor (mouse) (UniProt P33033)
[3] = biological target: mouse melanocortin 5 receptor (mouse) (UniProt P41149)
[4] = biological target: mouse melanocortin 4 receptor (mouse) (UniProt P56450)
Sequence of UniProt P56450 (P56450 whole entry): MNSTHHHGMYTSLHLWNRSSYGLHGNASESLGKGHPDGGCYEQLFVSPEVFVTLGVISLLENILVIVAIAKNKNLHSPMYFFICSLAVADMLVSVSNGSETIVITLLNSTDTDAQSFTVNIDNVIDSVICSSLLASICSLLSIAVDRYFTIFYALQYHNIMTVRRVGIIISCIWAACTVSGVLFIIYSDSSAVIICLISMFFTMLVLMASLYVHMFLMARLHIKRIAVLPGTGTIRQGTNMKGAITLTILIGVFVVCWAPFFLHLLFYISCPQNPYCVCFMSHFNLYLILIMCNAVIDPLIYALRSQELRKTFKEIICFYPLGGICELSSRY

Sequence of UniProt Q01727 (Q01727 whole entry): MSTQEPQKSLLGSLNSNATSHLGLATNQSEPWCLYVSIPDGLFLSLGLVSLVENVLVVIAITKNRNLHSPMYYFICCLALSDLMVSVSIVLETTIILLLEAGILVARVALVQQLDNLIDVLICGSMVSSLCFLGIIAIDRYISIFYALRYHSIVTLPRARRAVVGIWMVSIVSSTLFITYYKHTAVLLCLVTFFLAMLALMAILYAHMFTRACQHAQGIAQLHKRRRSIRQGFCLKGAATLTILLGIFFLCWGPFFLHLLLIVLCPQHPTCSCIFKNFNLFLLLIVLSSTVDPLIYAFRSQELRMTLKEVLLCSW
Sequence of UniProt P33033 (P33033 whole entry): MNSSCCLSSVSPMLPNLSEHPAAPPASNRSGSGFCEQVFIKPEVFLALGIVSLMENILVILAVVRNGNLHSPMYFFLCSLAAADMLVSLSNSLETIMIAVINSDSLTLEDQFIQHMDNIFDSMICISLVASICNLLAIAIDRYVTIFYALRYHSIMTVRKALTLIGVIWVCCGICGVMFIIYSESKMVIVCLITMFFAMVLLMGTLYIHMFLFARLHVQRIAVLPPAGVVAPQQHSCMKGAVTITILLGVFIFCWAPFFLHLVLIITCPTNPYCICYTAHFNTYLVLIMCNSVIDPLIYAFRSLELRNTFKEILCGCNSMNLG
Sequence of UniProt P41149 (P41149 whole entry): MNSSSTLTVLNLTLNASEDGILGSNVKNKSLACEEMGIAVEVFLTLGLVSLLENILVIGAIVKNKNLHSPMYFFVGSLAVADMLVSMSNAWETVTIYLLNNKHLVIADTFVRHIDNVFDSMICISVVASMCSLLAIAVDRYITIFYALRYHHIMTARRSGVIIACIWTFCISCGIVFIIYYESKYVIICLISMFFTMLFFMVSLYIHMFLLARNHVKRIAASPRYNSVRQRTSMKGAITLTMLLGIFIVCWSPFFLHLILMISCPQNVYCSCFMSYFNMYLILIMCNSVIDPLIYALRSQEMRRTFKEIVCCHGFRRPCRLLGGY

agonist EC50, AlphaScreen cAMP assay on stably transfected HEK293 cells [1]	agonist EC50, AlphaScreen cAMP assay on stably transfected HEK293 cells [2]	agonist EC50, AlphaScreen cAMP assay on stably transfected HEK293 cells [3]	agonist EC50, AlphaScreen cAMP assay on stably transfected HEK293 cells [4]	Substance
41 µM				ClpB(535-548) (from UniProt P63284 535-548) (peptide)
0.00014 µM	0.5 nM	0.51 nM	2.9 nM	α-MSH (peptide)
